{"source": "paper PMC12650828", "biological_target": "cell-surface nucleolin (NCL) (UniProt P19338)", "sequence (P19338 whole entry)": "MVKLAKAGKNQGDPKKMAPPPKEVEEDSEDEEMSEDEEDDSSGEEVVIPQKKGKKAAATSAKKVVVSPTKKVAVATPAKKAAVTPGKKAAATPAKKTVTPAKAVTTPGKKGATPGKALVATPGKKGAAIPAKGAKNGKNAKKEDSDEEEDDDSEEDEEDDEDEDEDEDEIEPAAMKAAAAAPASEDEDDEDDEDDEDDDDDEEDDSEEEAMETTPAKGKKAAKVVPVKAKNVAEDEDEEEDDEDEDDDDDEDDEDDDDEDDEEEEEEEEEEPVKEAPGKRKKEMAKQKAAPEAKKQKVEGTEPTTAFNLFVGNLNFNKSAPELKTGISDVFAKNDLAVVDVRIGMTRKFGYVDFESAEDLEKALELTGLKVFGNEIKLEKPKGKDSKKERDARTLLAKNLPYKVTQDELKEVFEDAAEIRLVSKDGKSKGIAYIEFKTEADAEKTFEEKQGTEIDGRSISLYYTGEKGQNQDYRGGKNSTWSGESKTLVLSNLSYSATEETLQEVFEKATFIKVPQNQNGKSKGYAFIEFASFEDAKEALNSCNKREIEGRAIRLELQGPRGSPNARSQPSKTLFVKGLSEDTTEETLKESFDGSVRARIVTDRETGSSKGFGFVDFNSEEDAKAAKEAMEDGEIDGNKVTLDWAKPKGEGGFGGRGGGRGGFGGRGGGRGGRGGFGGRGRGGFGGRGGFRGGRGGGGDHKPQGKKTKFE", "assay": "competition", "conditions": "MST: 300 nM FAM-aptamer, NCL 1.95 nM-4 uM, binding buffer not specified, 25 C, 15 min; AP1-AP6 and Mut folded in 100 mM KCl, 10 mM K3PO4 pH 7.0; AS1411 in …; scale: % decrease of anti-NCL fluorescence at 4 uM"}
{"sequence": "GUUAGGGUUUGGGAUUG [AP1]", "values": [{"measurement": "binding signal", "value": 50}]}
